How the values were obtained:
activated CD8+ T cells [1] = assay: C3aR and C5aR antagonists in vitro blockade, IL-10 intracellular staining; format: cell-based, mouse; conditions: 10 μmol/L of each antagonist, 6 days; FIG. 6J
Description: C3aR and C5aR Antagonists In Vitro Blockade: Mouse CD8+ T cells from lymph nodes were enriched using a negative selection kit (Stemcell Technologies; Cat #19853) and activated by plate-bound anti-CD3 (2 μg/mL) and anti-CD28 (1 μg/mL) antibodies for 72 hours. The activated CD8+ T cells were then cultured in complete medium alone (control), 10 μmol/L SB290157 (C3aR antagonist, C3aRA), 10 μmol/L PMX205 (C5aR antagonist, C5aRA), or a combination of 10 μmol/L SB290157 and 10 μmol/L PMX205 for 6 days. The IL10 expression was determined by intracellular staining.

[2] = cancer patients; cited from earlier work
[3] = system: TILs from human lung tumors; assay: In vitro expansion of human TILs cultured with IL-2 and/or IL-10; format: cell-based; conditions: FIG. 5A
Description: (§1) The plates were placed in a humidified 37° C. incubator with 5% CO2.
as §1

[4] = system: Human TILs from lung cancer patients; assay: T cell exhaustion markers on CD8+ TILs after IL-10 culture, flow cytometry; format: cell-based; conditions: IL-2 plus IL-10 versus IL-2, 21 days culture; FIG. 10
Description: T cells were activated by anti-CD3/CD28 antibodies for 24 hrs. The surface expression of PD-1, LAG-3 and TIM-3 was analyzed by flow cytometry. FACS profiles are representative of three patients.

[5] = system: CD8+ TILs from human lung tumors; assay: mRNA expression profiling (microarray) of expanded CD8+ TILs; format: cell-based; conditions: IL-10/IL-2-cultured versus IL-2-cultured CD8+ TILs
Description: Microarray Data Analysis: TILs from human lung tumors were in vitro—expanded for 20 days with 6,000 U/mL rIL2 and/or 100 U/mL rIL10. The expanded TILs were activated by incubation in 3 μg/mL anti-CD3/CD28 antibodies for 6 hours. The CD8+ TILs were enriched by negative selection using a kit (Stemcell Technologies). RNA was extracted using TRIzol reagent (Life Technologies) according to the instructions. Microarray analyses were performed using human U133A 2.0 arrays by the Duke University microarray facility. Raw intensities from the CEL files were analyzed using PartekGenomics Suite (Partek Incorporated) with standard background correction to generate an RMA (robust multiarray average intensity) on a log 2 scale for each probe set. Probe sets were filtered for “present” detection in two or more arrays, and the interquartile intensity range was >0.5. The filtered RMA intensities were then analyzed for differential expression using the advanced ANOVA, and differentially expressed genes were generated with/without FDR-adjusted P values using the Benjamini-Hochberg method.

human CD4+ T cells = assay: Impact of IL-10 on effector cytokine production in human CD4+ T cells; format: cell-based; conditions: 100 U/ml rIL-2 plus 500 U/ml rIL-10 versus rIL-2, 48 hrs; FIG. 9D
Description: (§2) B16F10 melanoma cells (2×10^5/mouse) were subcutaneously inoculated into WT and C3−/− mice. The draining lymph nodes and tumors were dissected and treated with collagenase and DNase to obtain single cell suspensions. Leukocytes were pre-gated on CD45 positive cells. FIG. 9A show the CD11b and GR1expression in leukocytes from dLNs as analyzed by flow cytometry. […] WT and C3−/− mice were subcutaneously inoculated with B16F10 cells (2×10^5/mouse). IFNγ- and TNFα-producing CD4+ TILs were analyzed by flow cytometry (n=4 mice per group) at day 12 after tumor inoculation. […] CD4+ T cells were enriched from PBMCs of healthy donors and activated by anti-CD3/CD28 antibodies in vitro for 48 hrs. The activated CD4+ T cells were then cultured with 100 U/ml rIL-2 or 100 U/ml rIL-2 plus 500 U/ml rIL-10 for 48 hrs. The cells were activated using a Cell Activation Cocktail (Biolegend) for 6 hours before intracellular IFNγ and TNFα staining. The expression of IFNγ and TNFα was analyzed by flow cytometry (n=3). […] Mouse CD4+ T cells were enriched from the spleens of naïve mice using a negative selection kit and activated by anti-CD3/CD28 antibodies for 48 hours in vitro. The activated CD4+ T cells were then cultured with 100 U/ml rIL-2 or 100 U/ml rIL-2 plus 500 U/ml rIL-10 for 48 hrs. […] The expression of IFNγ and TNFα was analyzed by flow cytometry (n=3). […]

mouse CD4+ T cells = assay: Impact of IL-10 on effector cytokine production in mouse CD4+ T cells; format: cell-based; conditions: 100 U/ml rIL-2 plus 500 U/ml rIL-10 versus rIL-2, 48 hrs; FIG. 9E
Description: as §2

activated CD8+ T cells [6] = assay: PD-1 expression on CD8+ T cells activated with anti-CD3/CD28 in the presence of IL-10; format: cell-based, mouse; conditions: 500 U/mL IL-10, 48 hours, 3 μg/mL anti-CD3/CD28; FIG. 7B
Description: (§3) B16F10 melanoma cells (2×10^5/mouse) were subcutaneously inoculated into wild-type (WT) and C3−/− mice. […] T cells from lymph nodes of naïve mice were activated by incubation with 3 μg/mL anti-CD3/CD28 antibodies for 48 hours with or without 500 U/mL IL-10 and analyzed for PD-1 expression. FIGS. 7C-D show PD-L1 expression on tumor cells developed in WT and C3−/− mice. Bl6F10 melanoma cells (2×10^5/mouse) or E0771 breast cancer cells (1×10^6/mouse) were subcutaneously inoculated into WT and C3−/− mice. PD-L1 expression in CD45-B16 tumor cells (FIG. 7C) and CD45-E0771 cells (FIG. 7D) was measured by flow cytometry at day 12 and day 19, respectively. […] B16F10 cells were cultured with or without 500 U/mL IL-10 for 5 days. PD-L1 expression was analyzed by flow cytometry. […] B16F10 cells were transduced with control virus or single-guide RNA (sgRNA)—targeting PD-L1 virus and selected with puromycin to generate a stable PD-L1-silenced polyclonal cell line. […] Control or PD-L1-silenced B16F10 melanoma cells (4×10^5/mouse) were subcutaneously inoculated into C3−/− and C3−/− Tiger mice. GFP expression in CD3+CD8+ TILs was analyzed by flow cytometry. […] Tumor development was monitored every day starting from day 7 after implantation (n=7, 7, 9, and 8 mice, respectively). […] Significance was determined in FIG. 7H and FIG. 7I by Student t test.*, P≤0.05; **, P≤0.01.

B16F10 cells = assay: PD-L1 expression in tumor cells after IL-10 stimulation; format: cell-based, mouse; conditions: 500 U/mL IL-10 for 5 days; FIG. 7E
Description: as §3

In the case of `NC(N)=NCCC[C@H](NC(=O)COCC(c1ccccc1)c1ccccc1)C(=O)O` [SB 290157], the “IL-10 expression in activated CD8+ T cells” value (activated CD8+ T cells [1]) is reported as “slightly increased IL-10 expression”.

In the case of “Pegylated IL-10: Pegylated IL-10 given to cancer patients”, the adverse effect profile [2] is listed as “manageable adverse effect profile”.

With “hydrocinnamate-(L-ornithine-proline-D-cyclohexylalanine-tryptophan-arginine) [PMX205]” the “IL-10 expression in activated CD8+ T cells” value (activated CD8+ T cells [1]) was “slightly increased IL-10 expression”.

B1: IL-10: a cytokine with multiple, pleotropic effects in immunoregulation and inflammation (protein, UniProt P22301 19-178, looked up)
Interleukin-10: SPGQGTQSENSCTHFPGNLPNMLRDLRDAFSRVKTFFQMKDQLDNLLLKESLLEDFKGYLGCQALSEMIQFYLEEVMPQAENQDPDIKAHVNSLGENLKTLRLRLRRCHRFLPCENKSKAVEQVKNAFNKLQEKGIYKAMSEFDIFINYIEAYMTMKIRN
With B1 the “proliferative capacity of TILs” value ([3]; IL-10 added with IL-2: 6,000 U/mL rIL-2 plus 100 U/mL rIL-10, TILs from patients with lung cancer) was “robustly enhanced the proliferative capacity of TILs”, the “proliferative capacity of TILs (entry into the cell cycle)” value ([3]; IL-10 alone, 100 U/mL rIL-10) was “did not drive TILs into the cell cycle” and the “expression of T-cell exhaustion markers (PD-1, LAG3, TIM3)” value [4] was “not altered”. For the same molecule, the “expression of genes of signaling pathways (TCR signaling, Notch signaling, cell cycle, killing activity)” value ([5]; 20 days, FIG. 5F-I) was “upregulated genes related to several signaling pathways”, the “expression of chemokine genes” value ([5]; FIG. 5J) was “variable depending on the specific chemokine” and the “effector status (IFNγ and TNFα) of human CD4+ T cells” value (human CD4+ T cells) was “did not obviously alter the effector status”. For the same molecule, the “effector status (IFNγ and TNFα) of mouse CD4+ T cells” value (mouse CD4+ T cells) was “did not obviously alter the effector status”, the “PD-1 expression on activated CD8+ T cells” value (activated CD8+ T cells [6]) was “did not modulate PD-1 expression” and the “PD-L1 expression on tumor cells” value (B16F10 cells) was “not changed”.
